Measured values taken from patent publication US20220235344A1, “TRYPSIN VARIANTS WITH IMPROVED ENZYMATIC PROPERTIES” (BIOPHARMA TRANSLATIONSINSTITUT DESSAU FORSCHUNGS GMBH, priority 2018, published 2022).
Values joined by “and” are separate entries in the source; they are usually repeats but may differ in a detail not shown here. Equal entries are not always repeated.

T1: Bz-PGGYRAHAG-OH (acyl donor) / H-RAHAK-OH (acyl acceptor) (Rattus norvegicus, UniProt P00763, D194K/K66E/Y45H/Y65H)
T1 construct: monomeric enzyme species (about 24 kDa); made in house; host or cells: Pichia pastoris X-33 (pPICZalphaA, secreted)
T1 sequence (P00763 24-246 Y45H/Y65H/K66E/D194K): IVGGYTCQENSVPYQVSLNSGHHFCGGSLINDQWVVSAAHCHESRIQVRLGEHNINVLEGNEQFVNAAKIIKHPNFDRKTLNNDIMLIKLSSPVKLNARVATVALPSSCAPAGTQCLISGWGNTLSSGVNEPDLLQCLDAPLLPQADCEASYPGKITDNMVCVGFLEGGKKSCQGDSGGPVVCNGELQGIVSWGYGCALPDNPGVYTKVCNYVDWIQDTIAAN


How the values were obtained:
Format in all cases: biochemical
[1] = tested on: R1-YRKH-R2 (Bz-PGGYRKHAG-OH) / H-RKHAK(DNP)-OH; assay: Zinc dependence of the transamidation reaction, A2C8 and K7F11, YRKH; details: 100 μM acyl donor, 200 μM acyl acceptor
Method: (§1) Model transamidation reactions were performed in a solution containing 15 to 250 μM acyl donor, 2 eq. of the corresponding acyl acceptor, varying concentrations of trypsin variant, 100 mM HEPES/NaOH pH 7.8, ±0.1 mM ZnC12, 100 mM NaCl, 10 mM CaCl2) at 30° C. Acyl donor and acyl acceptor had the same amino acids in P1′-P3′ position, e.g. Bz-[…]+H-RAHAK-OH or Bz-[…]+H-RKKAK-OH. Variations are indicated. The acyl acceptor could be equipped with a 2,4-Dinitrophenyl group (DNP) at the side chain of the terminal lysine, e.g. H-RAHAK(DNP)-OH or H-RKKAK(DNP)-OH. The reactions were started by the addition of enzyme. To record the time course of product formation and/or for kinetic evaluation of the reaction several aliquots of the reaction mixture were quenched with 25% (v/v) acetic acid at distinct time points within up to 4 hours. The composition of the reaction mixture was analyzed by UPCL with method I or II, depending on the absence (method 1) or presence (method II) of a 2,4-dinitrophenyl group within the acyl acceptor (see example 1). Measurements were performed as duplicates and errors were less than 5%.

[2] = tested on: Bz PGGXaaXaaXaaHAG-OH / H-XaaXaaXaaAK(DNP)-OH (recognition sequences YRRH, YMKH, RMKH); assay: Time course of transamidation by A2C8_H39Y/H59Y/E60K/K189D and wild-type trypsin (FIG. 5); details: comparison value for A2C8
Method: FIG. 5: Time course of the product formation for a transamidation reaction catalyzed by the variant A2C8_H39Y/H59Y/E60K/K189D as well as the wild-type Trypsin in correlation to various peptide substrates. Reaction conditions: 100 μM acyl donor (Bz PGGXaaXaaXaaHAG-OH), 200 μM acyl acceptor (H-XaaXaaXaaAK(DNP)-OH), 10 μM trypsin variant A2C8_H39Y/H59Y/E60K/K189D or 2.5 nM anionic rat trypsin II, 100 mM HEPES/NaOH pH 7.8, 0.1 mM ZnCl2, 100 mM NaCl, 10 mM CaCl2, T=30° C. UPLC analysis: Waters Acquity Ultra Performance LC, C18-column, gradient 5-60% acetonitrile, 5 min, detection at 360 nm.
The three substrates with the highest apparent turnover rate for the aminolysis reaction were then used for investigating the synthesis behavior of variant A2C8_H39Y/H59Y/E60K/K189D. In FIG. 5 the time course of product formation for a transamidation reaction catalyzed by variant A2C8_H39Y/H59Y/E60K/K189D with various peptide substrates is illustrated.

[3] = tested on: R1-YRAH-R2 (Bz-PGGYRAHAG-OH) / H-RAHAK(DNP)-OH; assay: Zinc dependence of the transamidation reaction, A2C8 and K7F11, YRAH
Method: as §1

[4] = target: T1, Bz-PGGYRAHAG-OH (acyl donor) / H-RAHAK-OH (acyl acceptor); assay: Model transamidation at high and low substrate concentrations, Trypsiligase II; details: for product yield (%) / kcat, AL^app (mkat/mol) / kcat, AL^app/kcat, HL^app / kcat, HL^app (mkat/mol): 0.1 mM ZnCl2
Method: as §1
The suitability of variant A2C8 and K7F11 as transamidases was further investigated in comparison to the native Trypsiligase II. Therefore the enzymatic parameters for the catalyzed transamidation reaction were determined by a model transamidation reaction using peptide substrates with the preferred recognition motive. In addition the model transamidation reaction was performed at high (250 μM) and low (15 μM) substrate concentrations to check, whether the new biocatalysts could also efficiently catalyze the desired reaction at low substrate concentration, which is a crucial requirement for the modification of therapeutic proteins. […] It was assumed that an improved transamidation activity is reached by introducing mutations which improve the affinity of the biocatalyst for the nucleophilic peptide and/or reduce its hydrolysis activity. Therefore corresponding experimental data describing both parameters for the native Trypsiligase II as well as variant A2C8 were determined.

[5] = R1-YRAH-R2, 100 μM acyl donor, 200 μM acyl acceptor, absence of zinc ions

Molecule | kcat, AL^app + Zn^2+ (mkat/mol) ([1]; 0.1 mM ZnCl2) | product yield + Zn^2+ (%) ([1]; 0.1 mM ZnCl2) | kcat, AL^app − Zn^2+ (mkat/mol) ([1]; absence of zinc ions) | product yield − Zn^2+ (%) ([1]; absence of zinc ions) | product yield at comparable conditions [2] | dependence for zinc ions ([3]; A2C8: substrates with YRAH and YRKH sequence, K7F11: YRAH substrate only) | kcat, AL^app + Zn^2+ (mkat/mol) ([3]; R1-YRAH-R2, 100 μM acyl donor, 200 μM acyl acceptor, 2 μM trypsin variant, 0.1 mM ZnCl2) | product yield + Zn^2+ (%) ([3]; R1-YRAH-R2, 100 μM acyl donor, 200 μM acyl acceptor, 0.1 mM ZnCl2) | kcat, AL^app − Zn^2+ (mkat/mol) [3, 5] | product yield − Zn^2+ (%) [3, 5] | product yield (%) ([4]; [Substrate] 15 μM Bz-PGGYRAHAG-OH, 30 μM H-RAHAK-OH) | kcat, AL^app (mkat/mol) ([4]; [Substrate] 15 μM) | kcat, AL^app/kcat, HL^app ([4]; [Substrate] 15 μM) | kcat, HL^app (mkat/mol) ([4]; [Substrate] 15 μM) | product yield (%) ([4]; [Substrate] 250 μM Bz-PGGYRAHAG-OH, 500 μM H-RAHAK-OH) | kcat, AL^app (mkat/mol) ([4]; [Substrate] 250 μM) | kcat, AL^app/kcat, HL^app ([4]; [Substrate] 250 μM) | kcat, HL^app (mkat/mol) ([4]; [Substrate] 250 μM) | turnover rate of hydrolysis relative to aminolysis ([4]; substrate concentration 15 μM)
A2C8: Trypsiligase II + H40F, A55A, R96E, K97D, L99F, N143E, E151Y, S190V, Q192A, S214G, G219Q, A221T (protein) IVGGYTCQENSVPYQVSLNSGHFFCGGSLINDQWVVSAAHCHESRIQVRLGEHNINVLEGNEQFVNAAKIIKHPNFDEDTFNNDIMLIKLSSPVKLNARVATVALPSSCAPAGTQCLISGWGETLSSGVNYPDLLQCLDAPLLPQADCEASYPGKITDNMVCVGFLEGGKKVCAGDSGGPVVCNGELQGIVGWGYQCTLPDNPGVYTKVCNYVDWIQDTIAAN | 8.42 mkat/mol | 55.0% | 16.92 mkat/mol | 57.6% | 59% | no dependence for zinc ions | 9.46 mkat/mol | 53.3% | 14.51 mkat/mol | 50.4% |  |  |  |  |  |  |  |  | 
Trypsiligase II (trypsin variant Y39H/Y59H/K60E/D189K) (protein) IVGGYTCQENSVPYQVSLNSGHHFCGGSLINDQWVVSAAHCHESRIQVRLGEHNINVLEGNEQFVNAAKIIKHPNFDRKTLNNDIMLIKLSSPVKLNARVATVALPSSCAPAGTQCLISGWGNTLSSGVNEPDLLQCLDAPLLPQADCEASYPGKITDNMVCVGFLEGGKKSCQGDSGGPVVCNGELQGIVSWGYGCALPDNPGVYTKVCNYVDWIQDTIAAN |  |  |  |  |  |  |  |  |  |  | 3% and 3.2% | 0.33 mkat/mol | 0.1 | 2.84 mkat/mol | 17% and 17.3% | 14.40 mkat/mol | 0.9 | 16.00 mkat/mol | tenfold higher turnover rate
